Results on 27 sequences are retold here after the domain aggregation screens of Martell et al. (2025).
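Also: 20 min heating vs room temperature control held 20 min.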

This series in a line: soluble fraction after stress (log2 fold change); higher = more stays soluble; pooled small domains, quantitative proteomics. Conditions: stress: 75 degC.
For “HMAISSADRIVAELRTWISGASPGTQLPSSRTLAARYGASPVTVQKALHTLAGMGLVEARPGAGTFVRRQS”, the “soluble fraction (log2)” value is -1.42. “HMAITVPEGATLSDAAVLLKQAGAVRSADAFLTRAKVFGGSTPIKAGEFVIPVQASNKDILAILQGGK”: the “soluble fraction (log2)” value came to 0.0742.

As for “HMAKIATTVYEQIRTAILNGELSNSERLVEEDLAVSMGISRTPVREALRRLAAEGLVDVSPNRGARVAE”, the “soluble fraction (log2)” value was -0.27. As for “HMAKINFTSDAIDIGMVTRNDIEMLSFYQNVLGLTKDMEIPFPGLGVVNKLSFGSGFIKILVL”, the “soluble fraction (log2)” value was 0.0804. The value for “HMAKLGITQREQEVLQLLVTGKTYKEIAAELFISLPTVKTHVSNIYSKAKVRNRLELSNLINYI” was -3.37; that for “HMAKNYYEILGLKSDATLPEIKKAFKKLSKKFHPDKNRDDDGYFESMFKSINEAYQVLIDEDKRATFDSHH” was -0.758; that for “HMAKPAALLFEHRFDGMAEMRFRENIVKNDDGSYTYDEYFLSMLDRAGLEKIVQENMEVWIAYAKQ” was -2.1. As for “HMAKPVKSPLPGSVIKVAVKVGQQIKRGDLLLTLESMKMENSILAEKDGVVKNIHVQAGQSVMQDDLLLDI”, the “soluble fraction (log2)” value is -0.88. The value for “HMAKPVNISAEPYHYDPTRFRVTFELPRLSDQPRKRIRKVAPAGLDREQALAWAKRLEREVLHELLR” was -1.08; that for “HMAKVSVNIILKDGVDQTTFVNDVTSNTEVDLKNQLISLPQMVVLSVEEDYINTLKSHSSISILELDE” was -0.296; that for “HMALALDDLFDRYEQLQDQSLGDKTEEGQELRAMIRAYIEQEGLSVRVTRSTTNRELLELIEQEMEG” was -0.306. In the case of “HMALENTDLYAHLRLSHTASVPEIQAALSARVKHMPLQTWLLARKWLLHPRLRERYDGMWSVRFGA”, the “soluble fraction (log2)” value was -2.87. For the sequence “HMALGRTGEVYLPIPAGRAGHGKISITLQGALREVDAVTAGEALPRGTSVRVVDVAGNGVLLVEK”, the “soluble fraction (log2)” value is -0.206. The value for “HMALHDTLSYEEYLDLGLNGKADSAEKRELVAHALHLGRPNAKTLYKRLNMLQLNRKDVAALLEQ” was 0.097; that for “HMALHLPTTTINGRQYYYFKSKEKITVYGLSKRLGLTRQEIVEHNPSAVDGIKRGSTLYFPVDEFAD” was -2.12.

As to “HMALLKRQDEILMYLYTQNKWITGNELAQLFHVSLRTIRNDISFINTEKSNSVLSNRNKGYHIAKDFVYNE”, the “soluble fraction (log2)” value was -1.26. For “HMALPDSEKRQWLVDEVNERGLKLPDDVLEYLFARVGRSQAHLVDVIEKLDFESLAQSRKLTIPFVREVLK”, the “soluble fraction (log2)” value was -0.225. For “HMALPRYFFRTRENGAVLFKTPVNNHQNRLEMHQIAAINIRNETVKPLGDTVLTDEETELIADWMRERKTV”, the “soluble fraction (log2)” value is -0.782. In the case of “HMALSVRNRMSDLLRMLGDGEFHRFENLFSLEEGRHGIVVTFLAMLELAKEQLVEISQGESLAPIYLKSLA”, the “soluble fraction (log2)” value is -1.05. For “HMAMDVKEVLLPGVGLRYEFDNSDGDRIGVIAKRSGDFEVVRYTAADRDAAQPMFRLTDEEADALAQILGA”, the “soluble fraction (log2)” value was 0.224. Consider “HMAMDYYAIGQRIRKFRKAHDWSQEELAEKVEISTTHMSHIETGSTKLSLPVLVSLANVLDVRTDDLLF”, for which the “soluble fraction (log2)” value is -3.81. For “HMAMKFQDIVRQKRKELGLTQEQAARRLGVSPAAVSKWESGQSLPDTPLFAPLARLLHTDLNTLLSFE”, the “soluble fraction (log2)” value is -1.21. For “HMAMTQNVDLAGRIVFNEKKEEVFNFGKHKGRSVAEVFEKEPSYYDWMLKGDFPAETKQVLTALRLRGLS”, the “soluble fraction (log2)” value was -0.186. The value for “HMAMTRTEYLNQLKHYLKRLPHTDYEEAMDYFKEYFEEAGPENEAQVIQDLGNPKEAAYEILSQLL” was -0.0595; that for “HMANDNFPLKLGSKGPRVLQLKTMLIQSLSNDALPKGRSSDAFDSELEALLSRNNLPTVIDETNFRVLTK” was -0.0514; that for “HMANFGSILRNLRISRDITQSELAAKLGVSRSTVGMYETGAREPDFEAMEAIADTFNVDMDYLVGRSQ” was -0.258. The value for “HMANLAQITKTNAVALALKDVGAYNSEDLMKFIDLDKVVLGEDGKPQLEDTINSLKESSPYLFQ” was 0.134.
